Assay [1] concerns the target T1, cynomolgus IL-17A (cynomolgus, UniProt Q16552 24-155 (human entry), limits assumed).
T1 construct: also called cyno IL-17A; cynoIL-17A
T1 chain: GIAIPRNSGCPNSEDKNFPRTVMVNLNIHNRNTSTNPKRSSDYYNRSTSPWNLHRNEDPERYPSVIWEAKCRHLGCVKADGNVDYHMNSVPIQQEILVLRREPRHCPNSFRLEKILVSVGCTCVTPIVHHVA
Kind of assay: competition ELISA: mAb against biotinylated cyno IL-17A binding to coated IL-17RA-Fc.
Protocol: (§1) Clear maxisorp plates were coated with 100 μl/well of 2.5 μg/ml human IL-17RA-Fc (R&D Systems, Minneapolis, Minn.) in 0.1 M sodium carbonate-bicarbonate buffer, pH 9.4 and incubated overnight at 4° C. […] The signal was detected with 100 μl of 1:10,000 dilution of 1 mg/ml SA-HRP (Jackson Immunoresearch, West Grove, Pa.) for 20 minutes at room temperature (RT) followed by 100 μl/well of OPD substrate (Sigma-Aldrich Corp., St. Louis, Mo.).

Assay [2] has as its target T1, cynomolgus IL-17A. As to the kind of experiment: cell-based or functional assay.
The target in assay [3] is T1, cynomolgus IL-17A. Kind of assay: competition ELISA: mAb against biotinylated cyno IL-17A binding to coated IL-17RA-Fc.
Protocol: as §1
The target in assay [4] is T1, cynomolgus IL-17A. Kind of assay: SPR Biacore 3000, antibody captured, IL-17 in solution.
Protocol: Affinity measurements using Surface Plasmon Resonance (SPR) were performed using a Biacore 3000 optical biosensor (Biacore).
Assay [5] has as its target T2, rhIL-17A/F heterodimer (R&D Systems) (human, UniProt Q16552 20-155; Q96PD4 31-163, limits assumed).
T2 sequence (looked up) 1: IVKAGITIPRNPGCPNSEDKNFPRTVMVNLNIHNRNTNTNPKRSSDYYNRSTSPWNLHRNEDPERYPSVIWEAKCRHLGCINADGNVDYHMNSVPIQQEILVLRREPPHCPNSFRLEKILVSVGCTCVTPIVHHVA
T2 sequence (looked up) 2: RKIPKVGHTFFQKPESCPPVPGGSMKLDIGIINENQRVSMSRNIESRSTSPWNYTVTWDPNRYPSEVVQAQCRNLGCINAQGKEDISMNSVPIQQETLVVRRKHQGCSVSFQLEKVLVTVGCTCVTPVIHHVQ
As to the kind of experiment: cell-based or functional assay.

Experimental findings from patent publication US20110236390A1 (Janssen / Centocor, published 2011) are described below.

Residue numbers refer to the chain shown, from its start. Like-named read-outs stand apart in the source and are kept apart here.

B1: mAb3077 (antibody, human IgG1, lambda, V domains shown)
VH: QVQLVQSGAEVKKPGSSVKVSCKASGGTFSSYAISWVRQAPGQGLEWMGSIIPWFGWTNYAQKFQGRVTITADESTSTAYMELSSLRSEDTAVYYCARDSEYYFDHWGQGTLVTVSS
VL: DIQMTQSPSSVSASVGDRVTITCRASQGISNWLNWYQQKPGKAPKLLIYAASSLQSGVPSRFSGSGSGTDFTLTISSLQPEDFATYYCQQYSDDPTFGQGTKVEIKG
notes: Framework-engineered mAb; also called engineered form of MOR7785
In turn, B1 had an IC50 with cynomolgus IL-17A [1] of 0.054 nM. Moreover, in the assay with cynomolgus IL-17A [2], the “IL-6 production (NHDF), IC50” value stood at 0.113 nM and the “IL-8 production (NHDF), IC50” value is 0.374 nM.

B2: MORmAb7785 (antibody, V domains shown)
VH: B1 VH
VL: DIQMTQSPSSLSASVGDRVTITCRASQGISNWLNWYQQKPGKAPKLLIYAASSLQSGVPSRFSGSGSGTDFTLTISSLQPEDFAVYYCQQYSDDPTFGQGTKVEIK
As for B2, the IC50 with cynomolgus IL-17A [3] was determined as 0.27 nM. This counts as sub-nanomolar.

B3: MORmAb8104 (antibody, V domains shown)
VH: B1 VH with W57T
VL: B2 VL
Regarding B3, the IC50 with cynomolgus IL-17A [3] came out at 0.306 nM.

B4: MORmAb7708 (antibody, V domains shown)
VH: B1 VH with S50R, N59S
VL: B2 VL
Regarding B4, the IC50 in the assay with cynomolgus IL-17A [3] turned out to be 0.289 nM.

B5: mAb7024 (antibody, human IgG1, lambda, V domains shown)
VH: B1 VH with W57T
VL: B1 VL
notes: Framework-engineered mAb; also called engineered form of MOR8104
As to B5, in the assay with cynomolgus IL-17A [1], the IC50 worked out at 0.117 nM. For the same molecule, in the assay with cynomolgus IL-17A [2], the “IL-6 production (NHDF), IC50” value came to 0.999 nM and the “IL-8 production (NHDF), IC50” value is 2.98 nM.

B6: MORmAb8105 (antibody, V domains shown)
VH: B1 VH with W57Y
VL: B2 VL
Take B6: the IC50 with cynomolgus IL-17A [3] was found to be 0.498 nM.

B7: mAb624 (antibody, human IgG1, lambda, V domains shown)
VH: B1 VH with S50R, N59S
VL: B1 VL
notes: Framework-engineered mAb; also called engineered form of MOR7708
Turning to B7, the IC50 with cynomolgus IL-17A [1] was determined as 0.051 nM. Also, the “IL-8 production (NHDF), IC50” value with cynomolgus IL-17A [2] amounted to 0.192 nM.

B8: mAb7146 (antibody, human IgG1, lambda, V domains shown)
VH: QVQLLESGGGLVQPGGSLRLSCAASGFTFSSYAMSWVRQAPGKGLEWVSTISMTSGFTYYADSVKGRFTISRDNSKNTLYLQMNSLRAEDTAVYYCARQLTLDVWGQGTLVTVSS
VL: QSVLTQPPSVSVAPGQTARISCSGDNLGDKYANWYQQKPGQAPVLVIYDDIDRPSGIPERFSGSNSGNTATLTISGTQAEDEADYYCGSYDFFLGLIVFGGGTKLTVLG
notes: Framework-engineered mAb; also called engineered form of MOR8160
In the case of B8, in the assay with cynomolgus IL-17A [4], the Kd is 0.05 nM and the Stoichiometry is 2 dimers per anti-IL-17. Further, the IC50 in the assay with cynomolgus IL-17A [1] is 0.067 nM. In addition, in the assay with cynomolgus IL-17A [2], the “IL-6 production (NHDF), IC50” value came to 0.139 nM and the “IL-8 production (NHDF), IC50” value worked out at 0.14 nM.

B9: MORmAb7700 (antibody, V domains shown)
VH: B8 VH with L5V, T101M
VL: DIELTQPPSVSVAPGQTARISCSGDNLGDKYANWYQQKPGQAPVLVIYDDIDRPSGIPERFSGSNSGNTATLTISGTQAEDEADYYCGSYDFFLGMIVFGGGTKLTVL
Molecule B9 gave an IC50 with cynomolgus IL-17A [3] of 0.236 nM. In other words, the sub-nanomolar range.

B10: MORmAb8141 (antibody, V domains shown)
VH: B8 VH with L5V, T101M
VL: B9 VL with M96L
In the assay with cynomolgus IL-17A [3], B10 yielded an IC50 of 1.44 nM.

B11: MORmAb8098 (antibody, V domains shown)
VH: B8 VH with L5V
VL: B9 VL
The molecule B11 showed an IC50 with cynomolgus IL-17A [3] of 0.289 nM.

B12: MORmAb8096 (antibody, V domains shown)
VH: B8 VH with L5V, M53L, T101M
VL: B9 VL
As to B12, in the assay with cynomolgus IL-17A [3], the IC50 came out at 0.058 nM.

B13: MORmAb8142 (antibody, V domains shown)
VH: B8 VH with L5V, T101M
VL: B9 VL with M96T
For B13, the IC50 with cynomolgus IL-17A [3] amounted to 0.139 nM.

B14: MORmAb8097 (antibody, V domains shown)
VH: B8 VH with L5V, T101L
VL: B9 VL
B14 yielded an IC50 with cynomolgus IL-17A [3] of 0.3 nM. This IC50 is about 2.2-fold higher than that of the molecule before.

B15: MORmAb8095 (antibody, V domains shown)
VH: B8 VH with L5V, M53I, T101M
VL: B9 VL
In the assay with cynomolgus IL-17A [3], B15 had an IC50 of 0.198 nM.

B16: mAb5548 (antibody, human IgG1, lambda, V domains shown)
VH: B8 VH with M53L
VL: B8 VL
notes: Framework-engineered mAb
For the molecule B16, in the assay with cynomolgus IL-17A [4], binding was characterised by a dissociation constant (Kd) of 0.225 nM and the Stoichiometry amounted to 1.9 dimers per anti-IL-17.

B17: MORmAb8143 (antibody, V domains shown)
VH: B8 VH with L5V, T101M
VL: B9 VL with M96Y
In the assay with cynomolgus IL-17A [3], B17 had a half-inhibitory concentration (IC50) of 0.252 nM.

B18: mAb6785 (antibody, human IgG1, lambda, V domains shown)
VH: B8 VH with M53L
VL: B8 VL with L96M
notes: Framework-engineered mAb; also called engineered form of MOR8302
For B18, in the assay with cynomolgus IL-17A [4], the Kd is 0.148 nM and the Stoichiometry was 2.2 dimers per anti-IL-17. Also, the IC50 with cynomolgus IL-17A [1] was 0.076 nM. Further, the “IL-17A/F heterodimer-induced IL-6 production by NHDF, EC50” value in assay [5] was found to be 2 nM. In the assay with cynomolgus IL-17A [2], the “IL-6 production (NHDF), IC50” value was 0.193 nM and the “IL-8 production (NHDF), IC50” value amounted to 0.563 nM.

B19: mAb4538 (antibody, human IgG1, lambda, V domains shown)
VH: QVQLQQSGPGLVKPSQTLSLTCAISGDSVSSSSAAWGWIRQSPSRGLEWLGRISYRSKWYNDYAVSVKSRITINPDTSKNQFSLQLNSVTPEDTAVYYCAREVDSMYYSYFDIWGQGTLVTVSS
VL: EIVLTQSPATLSLSPGERATLSCRASQNVWAFYLAWYQQKPGQAPRLLIYGASNRATGIPARFSGSGSGTDFTLTISSLEPEDFAVYYCQQYRSTLSLTFGQGTKVEIKG
notes: Framework-engineered mAb; also called engineered form of MOR7706
With B19, in the assay with cynomolgus IL-17A [1], the IC50 worked out at 0.636 nM. Moreover, in the assay with cynomolgus IL-17A [2], the “IL-6 production (NHDF), IC50” value was found to be 0.847 nM and the “IL-8 production (NHDF), IC50” value was 1.75 nM.

B20: MORmAb7775 (antibody, V domains shown)
VH: B19 VH with S44G
VL: DIVLTQSPATLSLSPGERATLSCRASQNVWAFYLAWYQQKPGQAPRLLIYGASNRATGVPARFSGSGSGTDFTLTISSLEPEDFATYYCTQYYSSPSLTFGQGTKVEIK
For the molecule B20, in the assay with cynomolgus IL-17A [3], the IC50 came to 0.541 nM.

B21: MORmAb7706 (antibody, V domains shown)
VH: B19 VH with S44G
VL: B20 VL with T90Q, Y93R, S95T, P96L
The molecule B21 gave an IC50 with cynomolgus IL-17A [3] of 0.961 nM.

B22: MORmAb8101 (antibody, V domains shown)
VH: B19 VH with S44G, M106I
VL: B20 VL
On to B22, for which the IC50 with cynomolgus IL-17A [3] amounted to 0.845 nM.

B23: mAb732 (antibody, human IgG1, lambda, V domains shown)
VH: B19 VH
VL: B19 VL with Q90T, R93Y, T95S, L96P
notes: Framework-engineered mAb; also called engineered form of MOR7775
Turning to B23, the IC50 with cynomolgus IL-17A [1] was found to be 0.463 nM. Besides, in the assay with cynomolgus IL-17A [2], the “IL-6 production (NHDF), IC50” value worked out at 2.02 nM and the “IL-8 production (NHDF), IC50” value amounted to 12.5 nM.

B24: MORmAb8102 (antibody, V domains shown)
VH: B19 VH with S44G, M106L
VL: B20 VL
On to B24, for which the IC50 with cynomolgus IL-17A [3] stood at 0.838 nM.

B25: MORmAb8103 (antibody, V domains shown)
VH: B19 VH with S44G, M106T
VL: B20 VL
B25 returned an IC50 with cynomolgus IL-17A [3] of 0.491 nM. This IC50 lies about 1.7-fold lower than the previous one.

B26: mAb3584 (antibody, human IgG1, lambda, V domains shown)
VH: B19 VH with M106I
VL: B19 VL
notes: Framework-engineered mAb; also called engineered form of MOR8299
Molecule B26 gave a half-inhibitory concentration (IC50) with cynomolgus IL-17A [1] of 0.489 nM. Moreover, in the assay with cynomolgus IL-17A [2], the “IL-6 production (NHDF), IC50” value came out at 0.823 nM and the “IL-8 production (NHDF), IC50” value was determined as 1.25 nM.

B27: mAb4168 (antibody, human IgG1, lambda, V domains shown)
VH: B19 VH with M106T
VL: B19 VL with Q90T, R93Y, T95S, L96P
notes: Framework-engineered mAb; also called engineered form of MOR8103
Regarding B27, the IC50 with cynomolgus IL-17A [1] stood at 0.764 nM. Further, in the assay with cynomolgus IL-17A [2], the “IL-6 production (NHDF), IC50” value came out at 2.17 nM and the “IL-8 production (NHDF), IC50” value was 3.3 nM.
